Experimental data: patent publication US9618524B2, “Method, composition, isolation and identification of a plaque particle and related biomarker” (Plaxgen Inc., priority 2012, dated 2017)

B1: Ig alpha-2 chain C region (protein)
chain: ASPTSPKVFPLSLDSTPQDGNVVVACLVQGFFPQEPLSVTWSESGQNVTARNFPPSQDASGDLYTTSSQLTLPATQCPDGKSVTCHVKHYTNSSQDVTVPCRVPPPPPCCHPRLSLHRPALEDLLLGSEANLTCTLTGLRDASGATFTWTPSSGKSAVQGPPERDLCGCYSVSSVLPGCAQPWNHGETFTCTAAHPELKTPLTANITKSGNTFRPEVHLLPPPSEELALNELVTLTCLARGFSPKDVLVRWLQGSQELPREKYLTWASRQEPSQGTTTYAVTSILRVAAEDWKKGETFSCMVGHEALPLAFTQKTIDRMAGKPTHINVSVVMAEADGTCY
B2: Cluster of Ig mu chain C region (protein, UniProt P01871 1-474, looked up)
Immunoglobulin heavy constant …: GSASAPTLFPLVSCENSPSDTSSVAVGCLAQDFLPDSITFSWKYKNNSDISSTRGFPSVLRGGKYAATSQVLLPSKDVMQGTDEHVVCKVQHPNGNKEKNVPLPVIAELPPKVSVFVPPRDGFFGNPRKSKLICQATGFSPRQIQVSWLREGKQVGSGVTTDQVQAEAKESGPTTYKVTSTLTIKESDWLGQSMFTCRVDHRGLTFQQNASSMCVPDQDTAIRVFAIPPSFASIFLTKSTKLTCLVTDLTTYDSVTISWTRQNGEAVKTHTNISESHPNATFSAVGEASICEDDWNSGERFTCTVTHTDLPSPLKQTISRPKGVALHRPDVYLLPPAREQLNLRESATITCLVTGFSPADVFVQWMQRGQPLSPEKYVTSAPMPEPQAPGRYFAHSILTVSEEEWNTGETYTCVVAHEALPNRVTERTVDKSTEGEVSADEEGFENLWATASTFIVLFLLSLFYSTTVTLFKVK
B3: Cluster of Ig alpha-1 chain C region (protein, UniProt P01876 1-398, looked up)
Immunoglobulin heavy constant …: ASPTSPKVFPLSLCSTQPDGNVVIACLVQGFFPQEPLSVTWSESGQGVTARNFPPSQDASGDLYTTSSQLTLPATQCLAGKSVTCHVKHYTNPSQDVTVPCPVPSTPPTPSPSTPPTPSPSCCHPRLSLHRPALEDLLLGSEANLTCTLTGLRDASGVTFTWTPSSGKSAVQGPPERDLCGCYSVSSVLPGCAEPWNHGKTFTCTAAYPESKTPLTATLSKSGNTFRPEVHLLPPPSEELALNELVTLTCLARGFSPKDVLVRWLQGSQELPREKYLTWASRQEPSQGTTTFAVTSILRVAAEDWKKGDTFSCMVGHEALPLAFTQKTIDRLADWQMPPPYVVLDLPQETLEEETPGANLWPTTITFLTLFLLSLFYSTALTVTSVRGPSGNREGPQY
B4: Ceruloplasmin (protein)
chain: KEKHYYIGIIETTWDYASDHGEKKLISVDTEHSNIYLQNGPDRIGRLYKKALYLQYTDETFRTTIEKPVWLGFLGPIIKAETGDKVYVHLKNLASRPYTFHSHGITYYKEHEGAIYPDNTTDFQRADDKVYPGEQYTYMLLATEEQSPGEGDGNCVTRIYHSHIDAPKDIASGLIGPLIICKKDSLDKEKEKHIDREFVVMFSVVDENFSWYLEDNIKTYCSEPEKVDKDNEDFQESNRMYSVNGYTFGSLPGLSMCAEDRVKWYLFGMGNEVDVHAAFFHGQALTNKNYRIDTINLFPATLFDAYMVAQNPGEWMLSCQNLNHLKAGLQAFFQVQECNKSSSKDNIRGKHVRHYYIAAEEIIWNYAPSGIDIFTKENLTAPGSDSAVFFEQGTTRIGGSYKKLVYREYTDASFTNRKERGPEEEHLGILGPVIWAEVGDTIRVTFHNKGAYPLSIEPIGVRFNKNNEGTYYSPNYNPQSRSVPPSASHVAPTETFTYEWTVPKEVGPTNADPVCLAKMYYSAVEPTKDIFTGLIGPMKICKKGSLHANGRQKDVDKEFYLFPTVFDENESLLLEDNIRMFTTAPDQVDKEDEDFQESNKMHSMNGFMYGNQPGLTMCKGDSVVWYLFSAGNEADVHGIYFSGNTYLWRGERRDTANLFPQTSLTLHMWPDTEGTFNVECLTTDHYTGGMKQKYTVNQCRRQSEDSTFYLGERTYYIAAVEVEWDYSPQREWEKELHHLQEQNVSNAFLDKGEFYIGSKYKKVVYRQYTDSTFRVPVERKAEEEHLGILGPQLHADVGDKVKIIFKNMATRPYSIHAHGVQTESSTVTPTLPGETLTYVWKIPERSGAGTEDSACIPWAYYSTVDQVKDLYSGLIGPLIVCRRPYLKVFNPRRKLEFALLFLVFDENESWYLDDNIKTYSDHPEKVNKDDEEFIESNKMHAINGRMFGNLQGLTMHVGDEVNWYLMGMGNEIDLHTVHFHGHSFQYKHRGVYSSDVFDIFPGTYQTLEMFPRTPGIWLLHCHVTDHIHAGMETTYTVLQNEDTKSG
B5: Vitamin D-binding protein (protein)
chain: LERGRDYEKNKVCKEFSHLGKEDFTSLSLVLYSRKFPSGTFEQVSQLVKEVVSLTEACCAEGADPDCYDTRTSALSAKSCESNSPFPVHPGTAECCTKEGLERKLCMAALKHQPQEFPTYVEPTNDEICEAFRKDPKEYANQFMWEYSTNYGQAPLSLLVSYTKSYLSMVGSCCTSASPTVCFLKERLQLKHLSLLTTLSNRVCSQYAAYGEKKSRLSNLIKLAQKVPTADLEDVLPLAEDITNILSKCCESASEDCMAKELPEHTVKLCDNLSTKNSKFEDCCQEKTAMDVFVCTYFMPAAQLPELPDVELPTNKDVCDPGNTKVMDKYTFELSRRTHLPEVFLSKVLEPTLKSLGECCDVEDSTTCFNAKGPLLKKELSSFIDKGQELCADYSENTFTEYKKKLAERLKAKLPDATPTELAKLVNKHSDFASNCCSINSPPLYCDSEIDAELKNIL
B6: Ig mu chain C region (protein)
chain: GSASAPTLFPLVSCENSPSDTSSVAVGCLAQDFLPDSITFSWKYKNNSDISSTRGFPSVLRGGKYAATSQVLLPSKDVMQGTDEHVVCKVQHPNGNKEKNVPLPVIAELPPKVSVFVPPRDGFFGNPRKSKLICQATGFSPRQIQVSWLREGKQVGSGVTTDQVQAEAKESGPTTYKVTSTLTIKESDWLGQSMFTCRVDHRGLTFQQNASSMCVPDQDTAIRVFAIPPSFASIFLTKSTKLTCLVTDLTTYDSVTISWTRQNGEAVKTHTNISESHPNATFSAVGEASICEDDWNSGERFTCTVTHTDLPSPLKQTISRPKGVALHRPDVYLLPPAREQLNLRESATITCLVTGFSPADVFVQWMQRGQPLSPEKYVTSAPMPEPQAPGRYFAHSILTVSEEEWNTGETYTCVVAHEALPNRVTERTVDKSTGKPTLYNVSLVMSDTAGTCY

The molecules below were run on Tau plaque particles (assay: Mass spectroscopy proteomics, semi-quantitative binding affinity of serum proteins (plaqueproteome, Table 2)). Settings: higher number = stronger affinity.
Set-up: species or system human
Method in brief: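 Synthetic Tau-74 and Tau-275 peptides (1 mg/mL PBS, 37° C, 2 h) aggregated; 30 μg aggregates incubated with 50% serum/plasma 1 h at 37° C, stained with Thioflavin S, and plaque particles sorted by flow cytometry. Bound proteins trypsin-digested and identified by MS/MS against human UniProt.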

First: B1
Second: B2
The “Semi-quantitative analysis of proteins binding to different plaque particles: Tau” value of the first is lower: 10 for the first, 11 for the second.

First: B3
Second: B4
The “Semi-quantitative analysis of proteins binding to different plaque particles: Tau” value of the first is lower: 12 for the first, 20 for the second.

Compared with B5, B6 is lower in “Semi-quantitative analysis of proteins binding to different plaque particles: Tau” value: 19 for the first, 10 for the second.

What follows are molecules tested on Low density cholesterol (Chl small) plaque particles in the same assay as above. Settings: higher number = stronger affinity.
Set-up: species or system human
Method in brief: (§1)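 Read-out is MS/MS protein identification (Sequest, strict trypsin, 20 ppm parent tolerance; Scaffold probabilities) of serum proteins bound to flow-sorted cholesterol plaque particles. These particles formed when 50% atherosclerotic serum was incubated with 30 μg cholesterol aggregates for 1 hr at 37° C.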

Going from B1 to B2, the “Semi-quantitative analysis of proteins binding to different plaque particles: Chl small” value rises from 6 to 10.

First: B3
Second: B4
The “Semi-quantitative analysis of proteins binding to different plaque particles: Chl small” value of the first is lower: 9 for the first, 22 for the second.

Going from B5 to B6, the “Semi-quantitative analysis of proteins binding to different plaque particles: Chl small” value falls from 18 to 10.

The molecules below were run on High Density cholesterol (Chl Large) plaque particles in the same assay as above. Settings: higher number = stronger affinity.
Set-up: species or system human
Method in brief: as §1

First: B1
Second: B2
The “Semi-quantitative analysis of proteins binding to different plaque particles: Chl Large” value of the first is lower: 9 for the first, 10 for the second.

Going from B3 to B4, the “Semi-quantitative analysis of proteins binding to different plaque particles: Chl Large” value rises from 10 to 20.

Going from B5 to B6, the “Semi-quantitative analysis of proteins binding to different plaque particles: Chl Large” value falls from 21 to 10.

What follows are molecules tested against T1, alpha-synuclein plaque particles (Homo sapiens, UniProt P37840) in the same assay as above. Settings: higher number = stronger affinity.
T1 construct: 140 amino acids polypeptide
Method in brief: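 AD-subject plasma or serum (800 μL of 50%) mixed with 30 μg preformed alpha-synuclein aggregates for 1 h at 37 °C; Thioflavin S-positive particles isolated by flow sorting. After reduction, acrylamide alkylation and overnight tryptic digestion, serum proteins identified by MS/MS with Sequest and Scaffold.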

Going from B1 to B2, the “Semi-quantitative analysis of proteins binding to different plaque particles: Synuclein” value falls from 10 to 9.

Going from B3 to B4, the “Semi-quantitative analysis of proteins binding to different plaque particles: Synuclein” value rises from 12 to 21.

First: B5
Second: B6
The “Semi-quantitative analysis of proteins binding to different plaque particles: Synuclein” value of the first is higher: 17 for the first, 8 for the second.

The molecules below were run against T2, Abeta-42 plaque particles (Homo sapiens, UniProt P05067) in the same assay as above. Settings: higher number = stronger affinity.
T2 construct: Abeta 1-42
Method in brief: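 AD patient serum or plasma (50% in PBS) was incubated with Abeta-42 aggregates (30 μg) for 1 h at 37 °C, then stained with Thioflavin S for 30 min. Labeled particles were FACS-sorted, trypsin/Lys-C digested overnight and analyzed by MS/MS. Sequest searched human UniProt; Scaffold/Protein Prophet validated the identifications.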

First: B1
Second: B2
The “Semi-quantitative analysis of proteins binding to different plaque particles: Abeta-42” value of the first is higher: 7 for the first, 5 for the second.

B3 and B4 are the same in “Semi-quantitative analysis of proteins binding to different plaque particles: Abeta-42” value: 9 for the first, 9 for the second.

Compared with B5, B6 is lower in “Semi-quantitative analysis of proteins binding to different plaque particles: Abeta-42” value: 12 for the first, 5 for the second.
